{"source": "paper PMC6585716", "about": "(Biopolymers, 2017)", "binders": {"B1": {"name": "AnchorV (X-VEPNCDIHVMWEWECFERL-Az4) (peptide)", "peptide": "{code X}-VEPNCDIHVMWEWECFERL-Az4", "modifications": "cysteine pairing not given here; reading uncertain", "notes": "also called anti-VEGF cyclic peptide ligand"}}, "molecular_target": "Recombinant human vascular endothelial growth factor (VEGF165) (human, UniProt P15692-4 1-191)", "sequence (P15692 other isoform, or with tags, fused parts or gaps)": "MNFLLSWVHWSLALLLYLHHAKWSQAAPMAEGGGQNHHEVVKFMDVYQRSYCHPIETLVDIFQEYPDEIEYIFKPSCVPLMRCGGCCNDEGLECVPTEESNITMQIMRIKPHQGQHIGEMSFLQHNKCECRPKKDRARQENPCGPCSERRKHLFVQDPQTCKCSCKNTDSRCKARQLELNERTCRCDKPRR", "conditions": "both partners purified", "note": "code X = not defined here; Az4 = not defined here"}
{"binder": "B1", "values": [{"measurement": "EC50", "result": "140 ± 21", "unit": "nM"}]}
